Patent publication US20120058118A1 (Boehringer Ingelheim, published 2012)
Residue numbers refer to the chain shown, from its start. Values belong to the binder of their own block, whether it stands above or below them. Ends that are not written are not given here. * marks the point of attachment. Biotin = O=C1N[C@H]2[C@H](CS[C@H]2CCCCC(=O)*)N1

Columns and labels:
[1] = molecular target: T1, human A-beta(1-40) peptide, monomeric (BAM) (human, biotin at the C-terminus in capture ELISA, SPR and TR-FRET; not biotinylated where coated directly (Example 7)); test: BAM ELISA
T1 construct: synthetic peptide (Anaspec), TFA/HFIP treated to give monomer; also called monomeric A-beta

[2] = molecular target: T2, aggregated A-beta(1-40) peptide (BAA) (human); test: BAA ELISA
T2 construct: also called A-beta peptide aggregates

A-beta(12-28) peptide = molecular target: T3, A-beta(12-28) peptide (human); test: SPR on captured A-beta(12-28)
T3 construct: Bachem peptide captured on streptavidin chip; also called monomeric A-beta(12-28); central region
T3 peptide: Biotin-VHHQKLVFFAEDVGSNK
Procedure: After capturing, surfaces are blocked by injecting an excess (200 μg/ml) of d-biotin for 180 s at 5 μl/min. A reference surface is washed and blocked with d-biotin. HBS-EP+buffer is used as the running buffer and experiments are performed at 25° C. For off-rate screening, periplasmic extracts of VHHs are injected at a 10-fold dilution for 2 min at 45 μl/min and are allowed to dissociate for 10 min. […] Between different VHH samples, the surfaces are regenerated with regeneration buffer (50 mM NaOH) for 25 s at 45 μl/min followed by 10 s 6M GuHCl at 45 μl/min if regeneration is incomplete. […] Data are double referenced by subtraction of the curves on the reference channel and of a blank running buffer injection. Sensorgrams are evaluated by fitting a 1:1 dissociation model using the Biacore T100 Evaluation software v1.1.1.

[3] = molecular target: T1, human A-beta(1-40) peptide, monomeric …; test: TR-FRET competition, labelled ABII60A10; extrapolated curve
[4] = molecular target: T2, aggregated A-beta(1-40) peptide (BAA); test: BAA ELISA; remark: listed apart in the source
[5] = molecular target: T1, human A-beta(1-40) peptide, monomeric …; test: BAM ELISA; remark: listed apart in the source
[6] = molecular target: T1, human A-beta(1-40) peptide, monomeric …; test: cell-based or functional assay
[7] = molecular target: T1, human A-beta(1-40) peptide, monomeric …; test: ABII002 TR-FRET competition assay
[8] = molecular target: T1, human A-beta(1-40) peptide, monomeric …; test: ABII050 TR-FRET competition assay
[9] = molecular target: T1, human A-beta(1-40) peptide, monomeric …; test: 42D4 TR-FRET assay (labelled ABII42D4)
[10] = molecular target: T1, human A-beta(1-40) peptide, monomeric …; test: 60A10 TR-FRET assay (labelled ABII60A10)
[11] = molecular target: T1, human A-beta(1-40) peptide, monomeric …; test: TR-FRET competition, labelled ABII42D4

binding result [1]: no binding
binding result [2]: no binding
B1: reference VHH 31-1 (VHH)
VHH: EVQLQASGGGSVQPGGSLRLSCAASGFIFGWSTMSWVRQAPGKGLEWVSTISGGGSATTYTDSVKGRFTISRDRAKNTLYLQMNSLKPEDTAIYYCNADVSTGFRYQRKDYWGRGTQVTVSS
notes: from WO2004/44204; also called V31-1

binding result (A-beta(12-28) peptide): binds
IC50 [3]: 773 nM
EC50 [4]: 12.8 nM
EC50 [5]: 37.5 nM
inhibition of peptide aggregation (ThT fluorescence), 28 µM VHH [6]: 73%
B2: ABII35D2 (VHH)
VHH: EVQLVESGGGLVQAGGSLRLSCVASGLTFSSYNMGWFRQAPGKEREFVAAISRSGGSTYYTDSVKGRFTISRDSSKNTVYLQMNSLKPEDTADYYCAAALFGSAINLLSEYRYWGQGTQVTVSS

binding result (A-beta(12-28) peptide): binds
IC50 [3]: 228 nM
EC50 [4]: 20 nM
EC50 [5]: 41.1 nM
inhibition of peptide aggregation (ThT fluorescence), 28 µM VHH [6]: 79%
B3: ABII42F5 (VHH)
VHH: EVQLVESGGGLVQAGDSLRLSCTASGRTFTDYNIGWFCQAPGKEREFVAAISGSGGSTYYADSAKGRFTISRDNAKNTVYLQMNSLKPEDTAVYACAAAQRRLAVNVDTSYNVWGQGTQVTVSS

binding result [1]: no binding
binding result [2]: no binding
B4: reference VHH 11G (VHH)
VHH: QVQLQESGGGLVQPGGSLRLSCAASGSIFSINTMAWYRQAPGKERDLVAAIISSGSTNYADSVKGRFTISRDNTKNTVYLQMNSLKLEDTAVYYCNAAIRRSVIDAWGAYWGQGTQVTVSS
notes: from WO2007/35092

binding result [1]: no binding
binding result [2]: no binding
B5: reference VHH 1B (VHH)
VHH: QVQLQESGGGLVQPGGSLRLSCAASEFTLDYYSIAWFRQAPGKEREGVSCISSYDGSTSYADSVKGRFTISRDNAKNTVYLQMNSLKPEDTAIYYCAAGIRDWATLREYEYDDWGQGTQVTVSS
notes: from WO2007/35092

IC50 [7]: 0.18 nM
IC50 [8]: 0.2 nM
B6: ABII323-PEG40 (designed binder)
chain: VQLLESGGGLVQPGGSLRLSCAASGRTFNNYNMGWFRQAPGKGREFVAAVSRSGVSTYYADSVKGRFTISRDNSKNTVYLQMNSLRPEDTAVYYCAAAYRGTAINVRRSYSSWGQGTLVTVSSGGGGSGGGGSGGGGCGGGGSGGGGSGGGGSGGGGSEVQLLESGGGLVQPGGSLRLSCVHSGPTFRTDTMGWFRQAPGKGREFVAAVTWNSGRINYADSVKGRFTISRDNSKNTAYLQMNSLRPEDTAVYYCAAHRFVVGGNRVEDWRYWGQGTLVTVSS
modifications: PEG40 on the Cys at position 15 of the 35GS linker
notes: 059-35GSC-035

IC50 [9]: 0.055 nM
IC50 [10]: 0.091 nM
B7: ABII60A10-35GS-ABII42D4 (designed binder)
chain: EVQLVESGGGLVQAGGSLRLSCAASGRTFNNYNMGWFRQAPGKEREFVAAVSRSGVSTYYADSVKGRFTISRDNAKNAVYLQMNSLKPEDTAIYYCGAAYRGTAINVRRSYDSWGQGTQVTVSSGGGGSGGGGSGGGGSGGGGSGGGGSGGGGSGGGGSEVQLVESGGGLVLAGGSLRLSCVHSGPTFSTDTMGWFRQAPGKEREFVAAVTWNSGRTNYADSVKGRFTVSRDNTRNAAYLQMSGLKDEDTAVYYCTAHRLVVGGTSVGDWRYWGQGTQVTVSS
notes: biparatopic VHH construct

IC50 [11]: 19 nM
B8: ABIIPMP111B9 (VHH)
VHH: EVQLVESGGGLVLAGGSLRLSCVHSGPTFGTDTMGWFRQAPGKEREFVAAVTWNSGRANYADSVKGRFTVSRDNTRNAAYLQMSGLKDEDTAVYYCTAHRFVVGGGCVKDWRYWGQGTQVTVSS
notes: c-myc and (His)6 tags

IC50 [11]: 3.4 nM
B9: ABIIPMP111F2 (VHH)
VHH: B8 VHH with G30S, A58T, H99N, F101H, V102S, G105R, G106L, C107S, K109G, T118S
notes: c-myc and (His)6 tags

IC50 [11]: 6.1 nM
B10: ABIIPMP111E4 (VHH)
VHH: B8 VHH with G30S, A58T, H99A, F101L, V102T, G105S, G106L, C107S, K109G
notes: c-myc and (His)6 tags

IC50 [11]: 6 nM
B11: ABIIPMP111C6 (VHH)
VHH: B8 VHH with G30W, A58L, F101Q, G106V, C107Q, K109L
notes: c-myc and (His)6 tags

IC50 [11]: 8.6 nM
B12: ABIIPMP111C4 (VHH)
VHH: B8 VHH with G30L, F101S, G106V, C107G, K109W, G115S
notes: c-myc and (His)6 tags

binding result (A-beta(12-28) peptide): binds
IC50 [3]: 844 nM
EC50 [4]: 19.2 nM
EC50 [5]: 27.3 nM
B13: ABII1E11 (VHH)
VHH: EVQLVESGGGLVQPGGSLRLSCAASGRTFSDYNMGWFHQAPGKEREIVAAISRSGRSTYYTVSVEGRFTISRDNAKNTVDLEMNSLKPEDTGIYYCAANSAGRAINLPLYKYWGQGTQVTVSS

IC50 [7]: 0.19 nM
IC50 [8]: 0.18 nM
B14: ABII059-27GS-ABII035-MSA (designed binder)
chain: EVQLLESGGGLVQPGGSLRLSCAASGRTFNNYNMGWFRQAPGKGREFVAAVSRSGVSTYYADSVKGRFTISRDNSKNTVYLQMNSLRPEDTAVYYCAAAYRGTAINVRRSYSSWGQGTLVTVSSGGGSGGGGSGGGGSGGGGSGGGGSGGGEVQLLESGGGLVQPGGSLRLSCVHSGPTFRTDTMGWFRQAPGKGREFVAAVTWNSGRINYADSVKGRFTISRDNSKNTAYLQMNSLRPEDTAVYYCAAHRFVVGGNRVEDWRYWGQGTLVTVSS
notes: built from the printed name; not shown: mouse serum albumin

IC50 [7]: 0.1 nM
IC50 [8]: 0.12 nM
B15: ABII059-27GS-ABII035-MSA_D3 (designed binder)
chain: B14 chain
notes: built from the printed name; not shown: domain III of mouse serum albumin

binding result [1]: no binding
binding result [2]: no binding
B16: reference VHH 3A (VHH)
VHH: AVQLVESGGGLVRDGDSLRLSCAASGRTFSSYVMGWFRQAPGKEREFVAAIGWSGGSTAYADSVKGRFTISRDNARNTVYLQMNSLKPEDTAVYYCASAPTRWVPRDSRFYDRWGQGTRVTVSS
notes: from WO2007/35092

binding result (A-beta(12-28) peptide): binds
IC50 [3]: 645 nM
EC50 [4]: 5.4 nM
EC50 [5]: 10.7 nM
inhibition of peptide aggregation (ThT fluorescence), 28 µM VHH [6]: 76%
B17: ABII35G2 (VHH)
VHH: EVQLVESGGGLVQAGGSLRLSCVASGRTFSNYGMGWFRQAPGKDREFVAAISRSGGTTYYEDDVKGRFTISRDNAKNSVYLQMNSLKPEDTAVYYCAARPSYVAVNIAASYNNWGQGTQVTVSS

binding result (A-beta(12-28) peptide): binds
IC50 [3]: 967 nM
EC50 [4]: 14.5 nM
EC50 [5]: 469 nM
B18: ABII61F6 (VHH)
VHH: EVQLVESGGGLVQTGGSLRLSCAASGSTVNINAMGWYRQAPGKQRELVAIINKRGVTNYADSTEGRFTISRDNSKRTLYLQMNSLKPEDTAVYYCNAVVGRYGRTYGYWGQGTQVTVSS

binding result (A-beta(12-28) peptide): binds
IC50 [3]: 206 nM
EC50 [4]: 1.3 nM
EC50 [5]: 1.9 nM
inhibition of peptide aggregation (ThT fluorescence), 28 µM VHH [6]: 82%
B19: ABII35C7 (VHH)
VHH: EVQLVESGGGLVQPGGSLRLSCAASGRTFSIYNMGWFRQAPGKEREFVAAISRSGSSTYYGDSVKGRFTISRDNAKKTVYLQMNSLKPEDTAVYHCAAARFGTPINTRGSYDYWGQGTQVTVSS

binding result (A-beta(12-28) peptide): binds
IC50 [3]: 205 nM
EC50 [4]: 2.6 nM
EC50 [5]: 17.5 nM
inhibition of peptide aggregation (ThT fluorescence), 28 µM VHH [6]: 75%
B20: ABII42E10 (VHH)
VHH: EVQLVESGGGLVQPGGSLRLSCAASGLTFTLYTMGWFRQAPGKEREFVAAISASGGTTYYADSVKGRFALSRDNAKNTVFLQMNTLKPEDTAEYLCAAAFRGFAINTPTSYNYWGQGTQVTVSS

IC50 [9]: 0.05 nM
IC50 [10]: 0.084 nM
B21: ABII42D4-35GS-ABII60A10 (designed binder)
chain: EVQLVESGGGLVLAGGSLRLSCVHSGPTFSTDTMGWFRQAPGKEREFVAAVTWNSGRTNYADSVKGRFTVSRDNTRNAAYLQMSGLKDEDTAVYYCTAHRLVVGGTSVGDWRYWGQGTQVTVSSGGGGSGGGGSGGGGSGGGGSGGGGSGGGGSGGGGSEVQLVESGGGLVQAGGSLRLSCAASGRTFNNYNMGWFRQAPGKEREFVAAVSRSGVSTYYADSVKGRFTISRDNAKNAVYLQMNSLKPEDTAIYYCGAAYRGTAINVRRSYDSWGQGTQVTVSS
notes: biparatopic VHH construct

IC50 [8]: 0.31 nM
B22: ABII315-PEG40 (designed binder)
chain: EVQLLESGGGLVQPGGSLRLSCAASGRTFNNYNMGWFRQAPGKGREFVAAVSRSGVSTYYADSVKGRFTISRDNSKNTVYLQMNSLRPEDTAVYYCAAAYRGTAINVRRSYSSWGQGTLVTVSSGGGGCGGGSEVQLLESGGGLVQPGGSLRLSCVHSGPTFRTDTMGWFRQAPGKGREFVAAVTWNSGRINYADSVKGRFTISRDNSKNTAYLQMNSLRPEDTAVYYCAAHRFVVGGNRVEDWRYWGQGTLVTVSS
modifications: PEG40 on the Cys at position 5 of the 9GS linker
notes: 059-9GSC-035; purified as His6-tagged construct before PEGylation
